This data set has as its system F2C intracellular calcium ion indicator protein (GAP43 palmitoylation signal - ECFP - two alpha-spectrin calpain sensitive sequences - EYFP).

Take “purified µ-calpain (Calpain I, Calbiochem, California, U.S.A.)”: the “Western blot for fragmented F2C after incubation with purified µ-calpain in Ca-EGTA buffer” value is “fragmented F2C signal was not detected (data not shown)”.

The values above are taken from US20070042345.
